Values joined by “and” are separate entries in the source; they are usually repeats but may differ in a detail not shown here. Equal values may be shown once. Values belong to the binder of their own block, whether it stands above or below them.
B1: Nrxn1 LNS2^SS2−, AviTag-His, biotinylated (BLI) (domain or fragment)
chain: not shown
modifications: biotin on the AviTag (BirA)
notes: numbers count on: UniProt Q9CS84-1 (isoform 1a); Igκ signal peptide at the N-terminus; source: 293F cells, transfected, secreted, purified (Ni-NTA, BirA biotinylation, Superdex Increase 200); not shown: AviTag, C-terminal, kept; His6, C-terminal, kept
B2: Nxph3-2XFLAG-His (rat neurexophilin-3, 50-252) (ligand, UniProt Q9Z2N5 50-252, looked up)
chain: RGHISPKSRPLANSTLLGLLAPPGEVWGILGQPPNRPKQSPLPSTKVKKIFGWGDFYSNIKTVALNLLVTGKIVDHGNGTFSVHFRHNATGQGNISISLVPPSKAVEFHQEQQIFIEAKASKIFNCRMEWEKVERGRRTSLCTHDPAKICSRDHAQSSATWSCSQPFKIVCVYIAFYSTDYRLVQKVCPDYNYHSDTPYYPSG
modifications: glycans (sites not given)
notes: Neurexophilin-3, rat, residues 50-252; Expressed with an Igκ signal peptide at the N-terminus; HRV 3C site before the tags, not cut; source: 293F cells, BacMam expression system, secreted; purification not described; not shown: 2xFLAG, C-terminal, kept; His6, C-terminal, kept
B3: Nrxn1 LNS2^SS2− (I401Q), AviTag-His, biotinylated (BLI) (domain or fragment)
chain: not shown
modifications: biotin on the AviTag (BirA)
notes: as for B1
B5: Nxph1-2XFLAG-His (mature rat neurexophilin-1, 118-271, glycosylated) (ligand, UniProt Q63366 118-271, looked up)
chain: MFGWGDFHSNIKTVKLNLLITGKIVDHGNGTFSVYFRHNSTGQGNVSVSLVPPTKIVEFDLAQQTVIDAKDSKSFNCRIEYEKVDKATKNTLCNYDPSKTCYQEQTQSHVSWLCSKPFKVICIYISFYSTDYKLVQKVCPDYNYHSDTPYFPSG
modifications: N-linked glycans at N146, N156 and N162
notes: Neurexophilin-1, rat, mature form, residues 118-271; Expressed with an Igκ signal peptide at the N-terminus; HRV 3C site before the tags, not cut for the biochemical studies; source: 293F cells, BacMam expression system, secreted; purification of Nxph1 alone not described; not shown: 2xFLAG, C-terminal, kept; His6, C-terminal, kept

How the values were obtained:
[1] = molecular target: B2; test: BLI; Octet RED384; biotinylated neurexin LNS2 on streptavidin tips, Nxph in solution; 25°C, PBS pH 7.4, 50 nM TCEP, 1% BSA; global fit, double reference subtraction; details: both partners purified
[2] = molecular target: the molecule itself; test: SEC-MALS; Superdex 200 10/300, 0.5 ml/min, PBS pH 7.4
[3] = molecular target: B5; test: BLI; Octet RED384; biotinylated neurexin LNS2 on streptavidin tips, Nxph in solution; 25°C, PBS pH 7.4, 50 nM TCEP, 1% BSA; global fit, double reference subtraction; details: both partners purified
[4] = molecular target: the molecule itself; test: SEC-MALS + other: SEC-SAXS; Nxph1 alone; SEC-MALS on Superdex 200 10/300 in PBS pH 7.4, SEC-SAXS on Superdex Increase 200 3.2/300
[5] = molecular target: T1, Nrxn1 LNS2^SS2A+, AviTag-His, biotinylated (BLI) (mouse, UniProt Q9CS84-1 283-480, 283–386; 394–480, biotin on the AviTag (BirA)); test: BLI; Octet RED384; biotinylated neurexin LNS2 on streptavidin tips, Nxph in solution; 25°C, PBS pH 7.4, 50 nM TCEP, 1% BSA; global fit, double reference subtraction; details: both partners purified
T1 construct: numbers count on: UniProt Q9CS84-1 (isoform 1a); Igκ signal peptide at the N-terminus; source: 293F cells, transfected, secreted, purified (Ni-NTA, BirA biotinylation, Superdex Increase 200); not shown: AviTag, C-terminal, kept; His6, C-terminal, kept

[6] = molecular target: B1; test: as above; details: both partners purified
[7] = molecular target: B3; test: as above; details: both partners purified
[8] = molecular target: T2, Nrxn1 LNS2^SS2A+ (I401Q), AviTag-His, biotinylated (BLI) (mouse, UniProt Q9CS84-1 283-480, 283–386; 394–480 | I401Q, biotin on the AviTag (BirA)); test: as above; details: both partners purified
T2 construct: numbers count on: UniProt Q9CS84-1 (isoform 1a); Igκ signal peptide at the N-terminus; source: 293F cells, transfected, secreted, purified (Ni-NTA, BirA biotinylation, Superdex Increase 200); not shown: AviTag, C-terminal, kept; His6, C-terminal, kept

[9] = molecular target: T3, Nrxn1 LNS2^SS2− (C293A), crystallographic construct (mouse, UniProt Q9CS84-1 283-480, 283–378; 394–480 | C293A); test: SEC-MALS; Superdex 200 10/300, 0.5 ml/min, PBS pH 7.4; details: both partners purified
T3 construct: Neurexin-1 alpha, mouse, LNS2 domain without insert in splice site 2, residues 283-378 joined to 394-480; numbers count on: UniProt Q9CS84-1 (isoform 1a); Expressed with an Igκ signal peptide at the N-terminus; source: HEK293S GnTI- cells, BacMam, co-expressed with Nxph1^3ND, complex purified (HisTrap, StrepTrap, 3C cleavage, Mono Q); not shown: Twin-Strep, C-terminal, cleaved

[10] = molecular target: T4, Nrxn1 LNS2^SS2A+, crystallographic construct (mouse, UniProt Q9CS84-1 283-480, 283–386; 394–480); test: as above; details: both partners purified
T4 construct: Neurexin-1 alpha, mouse, LNS2 domain with the eight-residue SS2A insert (379-386), residues 283-386 joined to 394-480; numbers count on: UniProt Q9CS84-1 (isoform 1a); Expressed with an Igκ signal peptide at the N-terminus; not shown: Twin-Strep, C-terminal, cleaved
T4 sequence (Q9CS84 other isoform, or with tags, fused parts or gaps 283–386/394–480 | 283–386/394–480): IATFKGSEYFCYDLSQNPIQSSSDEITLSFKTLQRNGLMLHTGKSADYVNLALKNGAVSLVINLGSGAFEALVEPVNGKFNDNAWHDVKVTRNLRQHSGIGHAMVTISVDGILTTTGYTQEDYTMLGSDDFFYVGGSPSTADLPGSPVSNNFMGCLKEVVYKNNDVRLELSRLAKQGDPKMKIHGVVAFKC

T2 sequence (Q9CS84 other isoform, or with tags, fused parts or gaps with the stated changes): as the sequence (Q9CS84 other isoform, or with tags, fused parts or gaps 283–386/394–480 | 283–386/394–480) above, with I112Q counted along it
T1 sequence (Q9CS84 other isoform, or with tags, fused parts or gaps 283–386/394–480 | 283–386/394–480): as the sequence (Q9CS84 other isoform, or with tags, fused parts or gaps 283–386/394–480 | 283–386/394–480) above
T3 sequence (Q9CS84 other isoform, or with tags, fused parts or gaps with the stated changes): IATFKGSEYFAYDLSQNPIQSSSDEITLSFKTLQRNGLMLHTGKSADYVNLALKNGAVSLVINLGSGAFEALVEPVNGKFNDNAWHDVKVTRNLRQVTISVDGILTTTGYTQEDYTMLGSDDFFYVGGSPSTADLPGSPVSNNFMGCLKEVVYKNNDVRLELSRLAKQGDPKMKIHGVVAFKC

Binder: B1
Kd [1]: 260 nM
koff [1]: 0.0001 s⁻¹
kon [1]: 209 M⁻¹ s⁻¹

Binder: B2
binding result [2]: binds

Binder: B3
Kd [1]: 3340 nM
koff [1]: 0.00064 s⁻¹
kon [1]: 194 M⁻¹ s⁻¹

Kd [3]: 31.4 nM
koff [3]: 6.4e-05 s⁻¹
kon [3]: 2060 M⁻¹ s⁻¹
B4: Nrxn3 LNS2^SS2A+, AviTag-His, biotinylated (BLI) (domain or fragment)
chain: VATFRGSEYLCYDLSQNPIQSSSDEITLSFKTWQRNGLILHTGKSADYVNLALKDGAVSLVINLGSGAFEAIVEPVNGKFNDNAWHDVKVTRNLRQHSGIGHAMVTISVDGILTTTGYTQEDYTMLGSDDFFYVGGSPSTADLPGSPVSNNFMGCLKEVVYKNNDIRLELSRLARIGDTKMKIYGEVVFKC
modifications: biotin on the AviTag (BirA)

Binder: B5
stoichiometry N [4]: 2 and 4
Kd [5]: 49 nM
koff [5]: 9.7e-05 s⁻¹
kon [5]: 2040 M⁻¹ s⁻¹
Kd [6]: 299 nM
koff [6]: 0.00012 s⁻¹
kon [6]: 399 M⁻¹ s⁻¹
Kd [7]: 16400 nM
koff [7]: 0.0034 s⁻¹
kon [7]: 220 M⁻¹ s⁻¹
Kd [8]: 472 nM
koff [8]: 0.0002 s⁻¹
kon [8]: 419 M⁻¹ s⁻¹

stoichiometry N [9]: 1
stoichiometry N [10]: 1
B6: Nxph1^3ND (mature rat neurexophilin-1, 118-271, N146D/N156D/N162D) (ligand, UniProt Q63366 118-271, looked up)
chain: MFGWGDFHSNIKTVKLNLLITGKIVDHGDGTFSVYFRHDSTGQGDVSVSLVPPTKIVEFDLAQQTVIDAKDSKSFNCRIEYEKVDKATKNTLCNYDPSKTCYQEQTQSHVSWLCSKPFKVICIYISFYSTDYKLVQKVCPDYNYHSDTPYFPSG
notes: Neurexophilin-1, rat, mature form, residues 118-271, the three N-linked glycosylation sites mutated to aspartic acid; Expressed with an Igκ signal peptide at the N-terminus; tags removed with HRV 3C protease; also called Nxph1 (in the crystal structures); source: HEK293S GnTI- cells, BacMam, co-expressed with LNS2, complex purified (HisTrap, StrepTrap, 3C cleavage, Mono Q); not shown: 2xFLAG, …

From publication PMC6856630, “Structures of neurexophilin–neurexin complexes reveal a regulatory mechanism of alternative splicing” (The EMBO Journal, 2019)
